In US20150139990A1 (DAINIPPON SUMITOMO PHARMA, published 2015):
Numbering of substitutions follows the chain as printed. In names and notes the source's numbering stands.

T1: human CD81 mutant V169L (human, UniProt P60033 1-236, limits assumed)
T1 construct: as m30; not shown: C-terminal V5 and 6xHis tags
T1 sequence: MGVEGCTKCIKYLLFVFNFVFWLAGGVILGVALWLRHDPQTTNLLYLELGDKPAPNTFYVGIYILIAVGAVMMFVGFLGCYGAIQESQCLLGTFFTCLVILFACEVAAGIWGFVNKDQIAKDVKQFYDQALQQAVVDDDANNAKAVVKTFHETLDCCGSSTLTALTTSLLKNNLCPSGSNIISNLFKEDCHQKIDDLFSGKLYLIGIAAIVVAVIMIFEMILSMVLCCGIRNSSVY

T2: human CD81 mutant A164V (human, UniProt P60033 1-236, limits assumed)
T2 construct: as m30; not shown: C-terminal V5 and 6xHis tags
T2 sequence: T1 sequence with A164V, L169V

T3: human CD81 mutant I194A (human, UniProt P60033 1-236, limits assumed)
T3 construct: as m30; not shown: C-terminal V5 and 6xHis tags
T3 sequence: T1 sequence with L169V, I194A

T4: human CD81 mutant L165A (human, UniProt P60033 1-236, limits assumed)
T4 construct: as m30; not shown: C-terminal V5 and 6xHis tags
T4 sequence: T1 sequence with L165A, L169V

T5: human CD81 mutant D137A (human, UniProt P60033 1-236, limits assumed)
T5 construct: as m30; not shown: C-terminal V5 and 6xHis tags
T5 sequence: T1 sequence with D137A, L169V

T6: human CD81 mutant A164T (human, UniProt P60033 1-236, limits assumed)
T6 construct: as m30; not shown: C-terminal V5 and 6xHis tags
T6 sequence: T1 sequence with A164T, L169V

T7: human CD81 mutant T163A (human, UniProt P60033 1-236, limits assumed)
T7 construct: as m30; not shown: C-terminal V5 and 6xHis tags
T7 sequence: T1 sequence with T163A, L169V

T8: human CD81 mutant V135A (human, UniProt P60033 1-236, limits assumed)
T8 construct: as m30; not shown: C-terminal V5 and 6xHis tags
T8 sequence: T1 sequence with V135A, L169V

T9: human CD81 mutant V169A (human, UniProt P60033 1-236, limits assumed)
T9 construct: as m30; not shown: C-terminal V5 and 6xHis tags
T9 sequence: T1 sequence with L169A

T10: human CD81 mutant G158S (human, UniProt P60033 1-236, limits assumed)
T10 construct: as m30; not shown: C-terminal V5 and 6xHis tags
T10 sequence: T1 sequence with G158S, L169V

B1: 002-A07 IgG4 antibody (antibody)
heavy: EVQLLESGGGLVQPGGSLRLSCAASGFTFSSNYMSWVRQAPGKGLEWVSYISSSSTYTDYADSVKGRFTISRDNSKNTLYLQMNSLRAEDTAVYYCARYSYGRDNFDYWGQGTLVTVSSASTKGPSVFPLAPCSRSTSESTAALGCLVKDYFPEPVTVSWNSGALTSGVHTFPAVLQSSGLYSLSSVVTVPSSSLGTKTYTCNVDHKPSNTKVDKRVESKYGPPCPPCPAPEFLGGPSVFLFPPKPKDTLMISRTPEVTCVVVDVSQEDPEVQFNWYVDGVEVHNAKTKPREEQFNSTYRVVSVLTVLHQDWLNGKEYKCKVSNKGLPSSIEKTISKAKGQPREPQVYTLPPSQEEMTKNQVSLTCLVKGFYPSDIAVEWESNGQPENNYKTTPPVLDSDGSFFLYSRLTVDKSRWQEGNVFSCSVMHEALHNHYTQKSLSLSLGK
light: QSVLTQPPSASGTPGQRVTISCTGSTSNIGAGYDTHWYQQLPGTAPKLLIYGNSNRPSGVPDRFSGSKSGTSASLAISGLRSEDEADYYCQSYDTNLSVWVFGGGTKLTVLGQPKAAPSVTLFPPSSEELQANKATLVCLISDFYPGAVTVAWKADSSPVKAGVETTTPSKQSNNKYAASSYLSLTPEQWKSHRSYSCQVTHEGSTVEKTVAPTECS
notes: human IgG4 S228P, lambda light chain
B2: 002-A07 N113S (antibody, human IgG4 S228P, lambda, V domains shown)
VH: EVQLLESGGGLVQPGGSLRLSCAASGFTFSSNYMSWVRQAPGKGLEWVSYISSSSTYTDYADSVKGRFTISRDNSKNTLYLQMNSLRAEDTAVYYCARYSYGRDNFDYWGQGTLVTVSS
VL: QSVLTQPPSASGTPGQRVTISCTGSTSNIGAGYDTHWYQQLPGTAPKLLIYGNSNRPSGVPDRFSGSKSGTSASLAISGLRSEDEADYYCQSYDTSLSVWVFGGGTKLTVLG
notes: IgG4 S228P; glycosylation site mutant of 002-A07 VL
B3: 002-A07 S115A (antibody, human IgG4 S228P, lambda, V domains shown)
VH: B2 VH
VL: B2 VL with S96N, S98A
notes: as for B2
B4: 002-A07 N113Q (antibody, human IgG4 S228P, lambda, V domains shown)
VH: B2 VH
VL: B2 VL with S96Q
notes: as for B2
B5: 002-A07 S115G (antibody, human IgG4 S228P, lambda, V domains shown)
VH: B2 VH
VL: B2 VL with S96N, S98G
notes: as for B2
B6: 002-A07 N113G (antibody, human IgG4 S228P, lambda, V domains shown)
VH: B2 VH
VL: B2 VL with S96G
notes: as for B2
B7: 003-D07 (antibody, human IgG4 S228P, lambda, V domains shown)
VH: B2 VH with G102D
VL: B2 VL with P8F, Q40H, S96N
notes: IgG4 S228P

biological target: T1, human CD81 mutant V169L; test: ELISA

Relative binding affinity, < 20%:
B1
B2
B3
B4
B5
B6
B7

biological target: T2, human CD81 mutant A164V; test: ELISA

Relative binding affinity, < 20%:
B1
B2
B3
B4
B5
B6
B7

biological target: T3, human CD81 mutant I194A; test: ELISA

Relative binding affinity, < 20%:
B1
B2
B3
B4
B5
B6
B7

biological target: T4, human CD81 mutant L165A; test: ELISA

Relative binding affinity, < 20%:
B1
B2
B3
B4
B5
B6
B7

biological target: T5, human CD81 mutant D137A; test: ELISA

Relative binding affinity, < 20%:
B1
B2
B3
B4
B5
B6
B7

biological target: T6, human CD81 mutant A164T; test: ELISA

Relative binding affinity, < 20%:
B1
B2
B3
B4
B5
B6
B7

biological target: T7, human CD81 mutant T163A; test: ELISA

Relative binding affinity, < 20%:
B1
B2
B3
B4
B5
B6

biological target: T8, human CD81 mutant V135A; test: ELISA

Relative binding affinity, < 20%:
B1
B2
B3
B4
B5
B6
B7

biological target: T9, human CD81 mutant V169A; test: ELISA

Relative binding affinity, < 20%:
B1
B2
B3
B4
B5
B6
B7

biological target: T10, human CD81 mutant G158S; test: ELISA

Relative binding affinity, < 20%:
B1
B2
B3
B4
B5
B6
B7
